From patent publication US20070128187A1 (GENOME THERAPEUTICS, published 2007) come the findings set out here.

Bounds are passed on as bounds.

To fix the notation:
T1: LRP5LBD-LexA bait (human, UniProt O75197 969-1376, limits assumed)
T1 construct: Neither the limits of the LBD nor the order of the two parts is stated; also called LRP5 LBD fused with LexA; not shown: LexA
T1 sequence: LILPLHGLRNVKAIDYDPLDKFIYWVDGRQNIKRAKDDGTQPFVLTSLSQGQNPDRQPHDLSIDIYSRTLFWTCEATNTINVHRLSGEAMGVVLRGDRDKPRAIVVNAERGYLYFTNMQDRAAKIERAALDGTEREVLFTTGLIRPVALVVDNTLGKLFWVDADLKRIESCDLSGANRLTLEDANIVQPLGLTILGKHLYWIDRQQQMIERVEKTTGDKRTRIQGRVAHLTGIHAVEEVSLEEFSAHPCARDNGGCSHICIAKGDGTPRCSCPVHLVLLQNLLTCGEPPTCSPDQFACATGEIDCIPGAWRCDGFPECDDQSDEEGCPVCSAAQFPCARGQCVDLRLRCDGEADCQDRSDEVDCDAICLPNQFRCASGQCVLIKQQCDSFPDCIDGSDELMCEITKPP

T2: Zmax1/LRP5 ligand binding domain bait LBD4 (Arg1070-Pro1376) (human, UniProt O75197 1070-1376)
T2 construct: also called pDBleuLBD4; not shown: not described
T2 sequence: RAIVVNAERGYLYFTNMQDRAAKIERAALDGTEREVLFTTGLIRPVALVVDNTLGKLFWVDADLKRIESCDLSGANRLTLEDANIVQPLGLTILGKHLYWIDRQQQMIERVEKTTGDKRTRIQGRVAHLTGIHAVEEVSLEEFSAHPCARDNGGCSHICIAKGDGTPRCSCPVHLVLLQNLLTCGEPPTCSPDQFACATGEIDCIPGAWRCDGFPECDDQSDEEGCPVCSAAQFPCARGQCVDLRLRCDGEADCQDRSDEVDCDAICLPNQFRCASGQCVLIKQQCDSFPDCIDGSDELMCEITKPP

T3: Zmax1/LRP5 ligand binding domain bait LBD1 (Leu969-Pro1376) (human, UniProt O75197 969-1376)
T3 construct: also called pDBleuLBD1; not shown: not described
T3 sequence: T1 sequence

B1: Dkk-1 clone isolated from the HOB03C5 osteoblast library (Gal4 activation domain fusion prey) (ligand, S. cerevisiae)
chain: ANFNQSGNIADSSLSFTFTNSSNGPNLITTQTNSQALSQPIASSNVHDNFMNNEITASKIDDGNNSKPLSPGWTDQTAYNAFGITTGMFNTTTMDDVYNYLFDDEDTPPNPKKETLNSVLNSNAIKNLPPPLGGAAGHPGSAVSAAPGILYPGGNKYQTIDNYQPYPCAEDEECGTDEYCASPTRGGDAGVQICLACRKRRKRCMRHAMCCPGNYCKNGICVSSDQNHFRGEIEETITESFGNDHSTLDGYSRRTTLSSKMYHTKGQEGSVCLRSSDCASGLCCARHFWSKICKPVLKEGQVCTKHRRKGSHGLEIFQRCYCGEGLSCRIQKDHHQASNSSRLHTCQRH
notes: also called Gal4AD-Dkk prey
B2: Dkk-1 clone D4 (F1/R2: Asn34-Cys245) (ligand, not shown: large carriers)
chain: NSVLNSNAIKNLPPPLGGAAGHPGSAVSAAPGILYPGGNKYQTIDNYQPYPCAEDEECGTDEYCASPTRGGDAGVQICLACRKRRKRCMRHAMCCPGNYCKNGICVSSDQNHFRGEIEETITESFGNDHSTLDGYSRRTTLSSKMYHTKGQEGSVCLRSSDCASGLCCARHFWSKICKPVLKEGQVCTKHRRKGSHGLEIFQRCYCGEGLSC
B3: Dkk-1 clone D3 (F1/R1: Asn34-Lys182) (ligand, not shown: large carriers)
chain: NSVLNSNAIKNLPPPLGGAAGHPGSAVSAAPGILYPGGNKYQTIDNYQPYPCAEDEECGTDEYCASPTRGGDAGVQICLACRKRRKRCMRHAMCCPGNYCKNGICVSSDQNHFRGEIEETITESFGNDHSTLDGYSRRTTLSSKMYHTK
B4: Dkk-1 clone D8 (F2/R2: Cys97-Cys245) (ligand, not shown: large carriers)
chain: CASPTRGGDAGVQICLACRKRRKRCMRHAMCCPGNYCKNGICVSSDQNHFRGEIEETITESFGNDHSTLDGYSRRTTLSSKMYHTKGQEGSVCLRSSDCASGLCCARHFWSKICKPVLKEGQVCTKHRRKGSHGLEIFQRCYCGEGLSC
B5: Dkk-1 clone D11 (F3/R2: Val139-Cys245) (ligand, not shown: large carriers)
chain: VSSDQNHFRGEIEETITESFGNDHSTLDGYSRRTTLSSKMYHTKGQEGSVCLRSSDCASGLCCARHFWSKICKPVLKEGQVCTKHRRKGSHGLEIFQRCYCGEGLSC

In one assay the target is T1, LRP5LBD-LexA bait. As to the kind of experiment: Y2H interaction trap, lacZ reporter under a single LexA operator. The source says: For example, the Interaction Trap methodology can be used as follows.
For the molecule B1, the “fold activation of lacZ reporter over the background” value is more than 20 fold.

Another assay concerns the target T2, Zmax1/LRP5 ligand binding domain bait …. The assay is described as follows: Y2H, growth on selective media. The source says: (§1) These clones were transformed into yeast and mated with each of three yeast strains containing pDBleu (Gibco/BRL), pDBleuLBD1, and pDBleuLBD4. Positive interactions were detected by growth of the hybrids on appropriate selective media.
As for B2, the binding result is listed as “binds”. Turning to B3, the binding result is “no binding”. For the molecule B4, the binding result was “binds”. Regarding B5, the binding result is “no binding”.

The next assay deals with T3, Zmax1/LRP5 ligand binding domain bait …. As to the kind of experiment: Y2H, growth on selective media.
Excerpt: as §1
Consider B2, for which the binding result was “binds”. On to B3, for which the binding result is “no binding”.

Take B4: the binding result is given as “binds”.

Take B5: the binding result is “no binding”.
